Measurements taken from PMC7311918.

Biological target: SARS-CoV-2 S 2P trimer (S ectodomain, residues 16-1206) (SARS-CoV-2) (UniProt P0DTC2)
Test: SEC-MALS

## SARS-CoV-2 S 2P trimer (S ectodomain, residues 16-1206) (from UniProt P0DTC2 16-1206) (natural protein)
  stoichiometry N: 3
